This is an account of results in US20040176573A1.

Test [1] concerns the target HLA-A2 (human).
In test [2] the target is HLA-A2 (human). The source holds these as a separate data set.

Read-outs that look alike come from different tables or passages of the source.

As for “HIV-1 pol476-484 (peptide; other documents disagree on this pair)”, the C50 is 0.2 µM with HLA-A2 (human) [1] and 0.7 µM in the test with HLA-A2 (human) [2].
